The record followed here is the supplement of paper PMC9170038.

The test system of data set [1] is K4 kissing-loop RNA reporter. Briefly: apparent KD of K4 kissing-loop reporter; higher = weaker reporter binding. The note with it: Eterna round: R107. The protocol: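 RNA-MaP round R107: designed RNA switches with theophylline, tryptophan, arginine or FMN aptamers are transcribed on-chip within common flanks. They are titrated with a labelled K4 kissing-loop RNA reporter in RNA-MaP buffer (100 mM Tris pH 7.5, 80 mM KCl, 4 mM MgCl2), without ligand or with the indicated ligand. Median apparent KD per design.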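 Also: bound reporter read as fluorescence of individual clusters on recovered sequencing chips by microscopy, with normalized cluster intensities fitted with a binding model.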

The subject of a further data set is MS2 coat protein. The experiment in a line: apparent KD of MS2 coat protein; designed switch direction (-1 OFF switch, 1 ON switch): -1; higher = weaker reporter binding. The essentials: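 The buffer was Tris-HCl pH 7.5 with KCl, MgCl2, BSA, DTT, tRNA and Tween-20. In it, SNAP-549-labelled MS2 coat protein was titrated in doubling steps from 0.7 or 1.5 nM to 3 µM over chip-bound RNA switches transcribed by stalled E. coli RNA polymerase on Illumina chips. Apparent KD is the per-design median over clusters of curve fits to normalised fluorescence.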

The mark [2] stands for this setting: input ligand: theophylline 20 uM.
[3] abbreviates: input ligand: tryptophan 2.4 mM.
[4] abbreviates: input ligand: microRNA oligo, concentration not stated.
Setting [5] is: Eterna round: R95, input ligand: FMN 200 uM.
Where [6] appears, read: Eterna round: R95, input ligand: microRNA oligo, concentration not stated.
The mark [7] stands for this setting: Eterna round: R95, input ligand: none.

Turning to “AAAGUUGAUGAGUUGGGUAUGUGUUCCGAAGGAGCGAGAAUUAUCUCAGGUAGGUCGCGGAAGAUGAGUGAUGUUCAUCUAUAAA [KL-XArg-A8 #analogue]”, the “apparent KD of K4 kissing-loop reporter” value in data set [1] (input ligand: FMN 200 uM) was determined as 147 nM; in data set [1] (input ligand: arginine 13.2 mM), 137 nM; in data set [1] (input ligand: none) it was 162 nM; in data set [1] (setting [2]), 144 nM; in data set [1] (setting [3]) it was 127 nM.
In the same order, the values of “AAAUAAAAGGCGGCCGCCACUGAACGCCUCCGCGUGGGUAUAUAGUGAUGUUAUAUGGCCGCCUUCAGGACCGGGCCAAAUAAAA [AstrosSSTryB#1]” are 458 nM, 220 nM, 339 nM, 274 nM and 373 nM.
As for “AAAUAAAGCAGUCACCCAGUGAUGUUGGAAGGAGCGUGCGAAAGCACAGGUAGGUCGCCGAUAGGACAAAGUCCAAGUGGCUGCA [#SwitchBubble 30 #K4Early]”, the “apparent KD of K4 kissing-loop reporter” value in data set [1] (input ligand: FMN 200 uM) came to 625 nM; in data set [1] (input ligand: arginine 13.2 mM) it was 437 nM; in data set [1] (input ligand: none), 487 nM; in data set [1] (setting [2]), 297 nM; in data set [1] (setting [3]), 318 nM.
On the same counts, the results for “AAAUCUUUCAGAAGGAGCGUGGAUUAUUCUUAUAUAUUUAUUACGAGUGAUGUUCGUAAUUCACAGGUAGGUCGCUGAUCAAUAA [JR_ExcArginiB_Sub006]” are 87.5 nM, 105 nM, 91.1 nM, 109 nM and 89.8 nM.
Consider “AAAUUUGCUCAUGAUACCAGCCAGUGAUGUUGGUUGGUCCACCGUGUCCGAACAUUAAGCGGCCCUUGGCAGCAUGAUGCGCGUA [Ininveaen]”, for which the “apparent KD of K4 kissing-loop reporter” value in data set [1] (input ligand: FMN 200 uM) came out at 129 nM; in data set [1] (input ligand: arginine 13.2 mM), 105 nM; in data set [1] (input ligand: none) it was 116 nM; in data set [1] (setting [2]), 143 nM; in data set [1] (setting [3]) it was 112 nM.
Turning to “AAAUUUUCAAGUGAUACCAGACAUUUUUAUUUCUUUAUUUAUGCUAAGUGAUGUUUAGCAGUCCCUUGGCAGCACUAUUUAAUUA [JR_Nu_SSTheophyB_Sub030]”, the “apparent KD of K4 kissing-loop reporter” value was determined as 127 nM in data set [1] (input ligand: FMN 200 uM); 174 nM in data set [1] (input ligand: arginine 13.2 mM); 141 nM in data set [1] (input ligand: none); 231 nM in data set [1] (setting [2]); 144 nM in data set [1] (setting [3]).
Regarding “AACACUCAGAGAGUGAUGUUCUCUAAUAAACGAGGACCGGUACGGCCGCCACUCGAAUAAGAGUGAGUCCUACGAAAAGUAGGAC [Omei inspired 5 #OpenEnded]”, the “apparent KD of K4 kissing-loop reporter” value worked out at 790 nM in data set [1] (input ligand: FMN 200 uM); 726 nM in data set [1] (input ligand: arginine 13.2 mM); 1050 nM in data set [1] (input ligand: none); 1120 nM in data set [1] (setting [2]); 224 nM in data set [1] (setting [3]).
In the same order, the values of “AACCGUGUGGCGGCCGCCACUAGUCUCCAGUGAUGUUGGAGAGACCACGUAAGUGGUCUCCAACAUAGGACCGGGCCAUAUGGAA [Same State - Tryptophan B (Freestyle 26)]” are 204 nM, 78.5 nM, 106 nM, 132 nM and 259 nM.
On the same counts, the results for “AACCUACGAUCACAAUAGUGAUUGUAGGACUAGGAUAUGCUGAAAAGCAGAAGGAGUGAUGUUCCACUCAUGAAUAACAUGAGAA [FmnAX 4 #OpenEnded #K4Late #CoaxialStacking]” are 594 nM, 340 nM, 410 nM, 324 nM and 270 nM.
For the sequence “UUUUUAUAUGAAGGAUAUACUUAACAUGAGGAUCACCCAUGUGGUGUUGUGAGUGAGUGAGUUUAGUAGAAGGUCAAGUACUUU [JMF's solution 37] (Eterna round: R96, puzzle: Exclusion NG 2)”, the “apparent KD of MS2 coat protein” value with MS2 coat protein (input ligand: FMN 200 uM) was 614 nM; in the data set on MS2 coat protein (setting [4]), 380 nM; in the data set on MS2 coat protein (input ligand: none) it was 574 nM.
On the same counts, the results for “UUUUUAUAUGAAGGAUAUACUUAACAUGAGGAUCACCCAUGUGGUGUUGUGAGUGAGUGAGUUUAGUAGAAGGUCAAUUAGUUU [JMF's solution 12] (Eterna round: R96, puzzle: Exclusion NG 2)” are 363 nM, 157 nM and 209 nM.
In the same order, the values of “UUUUUAUAUGAAGGAUAUACUUAACAUGAGGAUCACCCAUGUGGUGUUGUGAGUGAGUGAGUUUAGUAGAAGGUCAAUUAUAUU [JMF's solution 13] (Eterna round: R96, puzzle: Exclusion NG 2)” are 574 nM, 316 nM and 350 nM.
For the sequence “UUUUUAUAUGAAGGAUAUACUUAACAUGAGGAUCACCCAUGUGGUGUUGUGAGUGAGUGAGUUUAGUAGAAGGUCAAUUCUUUG [JMF's solution 84] (Eterna round: R96, puzzle: Exclusion NG 2)”, the “apparent KD of MS2 coat protein” value in the data set on MS2 coat protein (input ligand: FMN 200 uM) was found to be 397 nM; with MS2 coat protein (setting [4]), 344 nM; in the data set with MS2 coat protein (input ligand: none), 347 nM.
“UUUUUAUUUUUUUAUUUUGACAUGAGGAUCACCCAUGUCACGAGCAGAUCUUCAUGCAAGCUUUUUGCUCGUCUUAU [Sensor v3 - Turn-off variant 1 - 40] (puzzle: Sensor v3, turn-off variant 1)”: the “apparent KD of MS2 coat protein” value came to 58.3 nM with MS2 coat protein (setting [5]), 141 nM in the data set on MS2 coat protein (setting [6]) and 98.4 nM with MS2 coat protein (setting [7]).
In the same order, the values of “UUUUUCAGGCCAGAUCCUCACAUGAGGAUCACCCAUGUGCUCGUCUGUUUUCGCACUAGCUUUUUUUUGGUAGUGCU [Level Boss var2-15] (puzzle: Sensor v3, turn-off variant 1)” are 280 nM, 28.4 nM and 325 nM.
“UUUUUCAGGCCAGAUCCUCACAUGAGGAUCACCCAUGUGCUCGUCUGUUUUCGCUCUAGCUUUUUUUUGGUAGUGCU [Level Boss var2-16] (puzzle: Sensor v3, turn-off variant 1)”: the “apparent KD of MS2 coat protein” value came to 164 nM in the data set on MS2 coat protein (setting [5]), 31.8 nM in the data set with MS2 coat protein (setting [6]) and 243 nM in the data set with MS2 coat protein (setting [7]).
In the case of “UUUUUCGAACAAGCUACGUACAUGAGGAUCACCCAUGUUGGUAGAUUUGAGUAGGUUUGGAUGGAAGCUCGUCUUAU [JR_SV3TOV1_Sub083] (puzzle: Sensor v3, turn-off variant 1)”, the “apparent KD of MS2 coat protein” value in the data set with MS2 coat protein (setting [5]) stood at 19.2 nM; in the data set with MS2 coat protein (setting [6]), 44.5 nM; in the data set on MS2 coat protein (setting [7]), 21.4 nM.
In the case of “UUUUUCUCAGGAUAUACAUGAGGAUCACCCAUGUAUAUUAAGAAUAAUACAUGGGAAUGUAGAAGGGAGCUCAU [Omei Ex3 Pseudoloop 10] (Eterna round: R97, puzzle: Exclusion 3)”, the results for the “apparent KD of MS2 coat protein” value in the data set on MS2 coat protein (input ligand: FMN 200 uM) and in the data set on MS2 coat protein (input ligand: none) were 101 nM and 129 nM, respectively.
Turning to “UUUUUGUCAGGAUAUACGUAGUAGAACAAUAGUACUACUACGUAGAAGGGACAUGAGGAUCACCCAUGUUCCUC [Fiskers Ex 4 Super stable 44 mod 16] (puzzle: Exclusion 4)”, the “apparent KD of MS2 coat protein” value in the data set on MS2 coat protein (setting [6]) was determined as 16 nM.
On to “UUUUUGUGAGGAUAUCAGUAGUAGAACAAUAGUACUACUACUGAGAAGGUACAUGAGGAUCACCCAUGUUCCUC [Fiskers Ex 4 Super stable 44 mod 13] (puzzle: Exclusion 4)”, for which, in the data set with MS2 coat protein (setting [6]), the “apparent KD of MS2 coat protein” value was 19.5 nM.
